Target: native MICU1 (in the native, disulfide-connected MICU1-2 heterodimer) (human (endogenous in HEK 293)) (UniProt Q9BPX6)
UniProt Q9BPX6, sequence (Q9BPX6 34-476, one chain of several): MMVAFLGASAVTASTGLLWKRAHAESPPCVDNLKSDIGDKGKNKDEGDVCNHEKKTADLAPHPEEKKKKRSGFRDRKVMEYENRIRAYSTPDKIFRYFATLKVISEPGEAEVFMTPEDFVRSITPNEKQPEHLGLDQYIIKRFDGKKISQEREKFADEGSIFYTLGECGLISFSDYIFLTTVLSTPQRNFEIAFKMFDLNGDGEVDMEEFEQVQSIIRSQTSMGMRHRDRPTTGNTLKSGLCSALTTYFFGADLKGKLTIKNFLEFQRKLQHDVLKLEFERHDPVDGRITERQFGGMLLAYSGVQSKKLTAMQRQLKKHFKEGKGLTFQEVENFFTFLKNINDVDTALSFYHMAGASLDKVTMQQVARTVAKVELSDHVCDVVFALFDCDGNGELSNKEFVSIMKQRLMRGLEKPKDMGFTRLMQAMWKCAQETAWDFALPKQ

1D4-tagged human MCU D261A (from UniProt Q8NE86 51-351) (natural protein)
rate of mitochondrial ^45Ca^2+ uptake in low Ca^2+ (0.5 μM), D261A MCU expressed in MCU-KO cells (gating by MICU1 lost) (pmol/min/10^6 cells): 34
